Measured values from patent US20120237442A1 (published 2012).

Columns and labels:
human CD20 [1] = target: T1, human CD20 (human, UniProt P11836 1-297); assay: ELISA, reference veltuzumab
T1 construct: whole, on cells
T1 sequence (looked up): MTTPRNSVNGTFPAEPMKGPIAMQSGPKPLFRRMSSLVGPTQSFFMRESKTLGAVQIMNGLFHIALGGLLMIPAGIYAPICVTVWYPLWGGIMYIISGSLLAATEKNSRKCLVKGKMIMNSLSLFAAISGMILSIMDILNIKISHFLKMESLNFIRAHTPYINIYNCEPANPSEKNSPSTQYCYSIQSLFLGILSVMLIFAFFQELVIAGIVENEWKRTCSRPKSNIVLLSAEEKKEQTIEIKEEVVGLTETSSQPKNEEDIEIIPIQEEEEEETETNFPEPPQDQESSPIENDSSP

human CD20 [2] = target: T1, human CD20; assay: flow cytometry on live NHL cells, reference veltuzumab

B1: 20-(20)-(20) (antibody)
heavy 1: not shown
heavy 2: not shown
light: DIQLTQSPSSLSASVGDRVTMTCRASSSVSYIHWFQQKPGKAPKPWIYATSNLASGVPVRFSGSGSGTDYTFTISSLQPEDIATYYCQQWTSNPPTFGGGTKLEIKRTVAAPSVFIFPPSDEQLKSGTASVVCLLNNFYPREAKVQWKVDNALQSGNSQESVTEQDSKDSTYSLSSTLTLSKADYEKHKVYACEVTHQGLSSPVTKSFNRGEC
modifications: DNL complex locked by disulfide bridges between the cysteines of AD2 and DDD2. Stoichiometry: 2 IgG-AD2 heavy chains, 4 Fd-DDD2 chains, 6 kappa chains. Each unique chain is listed once.
notes: One Fc and 6 anti-CD20 Fabs; also called Hex-hA20; HexAb of veltuzumab
Human CD20 [1]
  fold higher binding avidity compared to veltuzumab: 3 fold
Human CD20 [2]
  fold slower off-rate compared to veltuzumab: 3 fold
